Assay results: the supplement of paper PMC10065799, “High-throughput profiling of sequence recognition by tyrosine kinases and SH2 domains using bacterial peptide display” (eLife, 2023)

Target: Grb2 SH2 (UniProt P62993)
Assay: SH2 binding enrichment of the phosphorylated peptide, bacterial display (enrichment ratio); higher = better substrate or ligand; peptides without Tyr show the background
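Note: peptide library displayed on the E. coli surface as eCPX fusions, selected cells deep-sequenced, score is each peptide's frequency after selection divided by its frequency in the input.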

Sequence of Grb2 SH2 (P62993 whole entry, looked up): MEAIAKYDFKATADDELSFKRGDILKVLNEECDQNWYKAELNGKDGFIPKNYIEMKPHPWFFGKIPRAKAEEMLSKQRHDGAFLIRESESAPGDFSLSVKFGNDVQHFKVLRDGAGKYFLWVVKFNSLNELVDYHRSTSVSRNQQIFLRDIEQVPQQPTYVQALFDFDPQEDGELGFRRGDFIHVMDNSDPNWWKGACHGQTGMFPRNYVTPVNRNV

| Sequence | SH2 binding enrichment |
| --- | --- |
| LTFDEYRNISQ [ANXA3_Y216] | 2.68 |
| PEVSGYCHYAD [TG_Y234_C237Y] | 0.691 |
| ELAVNYQEQAS [SLC9A9_Y591_I589V] | 0.964 |
| GDPTEYFITAI [IGSF22_Y501_S503I_YF] | 0.786 |
| QNTGDDFDLFG [PTPN11_Y62_Y62D_YF] | 0.768 |
| RLAKTYETTLE [ALB_Y377] | 0.834 |
| DDFDLYGGEKF [PTPN11_Y66_Y62D_YF] | 0.569 |
| SAGSSYSISVI [PAX5_Y179_G183V] | 0.856 |
| FLNSIYKCRDE [ROS1_Y2227_S2229C] | 0.895 |
| ARLEFYENEKK [IRS1_Y47_YF] | 1.18 |
| FRVAGYKTQGG [TIA1_Y383_E384K_YF] | 0.825 |
| FCVVRYCWLRR [MPZ_Y181_Y177C] | 0.581 |
| TDHLQYFDSNK [ARAP1_Y359_R358Q] | 1.2 |
| AASHRYDLGGL [QPRT_Y162] | 0.828 |
| TISPYYCQSLF [CRYAA_Y48_R49C] | 0.867 |
| CTTIHYDFMCN [TP53_Y234_N235D_YF] | 1.2 |
| LPEENYQVLRF [ARHGAP1_Y365] | 1.53 |

| Sequence | SH2 binding enrichment |
| --- | --- |
| VEEDTYTMPST [PTK2_Y407_D402V] | 0.64 |
| ACEVLYNIVFM [NCF2_Y125_A128V] | 0.798 |
| TNFPLYLRSLE [MTM1_Y71_R69P_YF] | 0.883 |
| VKPHRYRPGTV [H3-5_Y41] | 0.781 |
| YGGLRYGYGGL [KRTAP20-2_Y13_V17G] | 0.955 |
| DGYIDYAEFAK [MCFD2_Y138] | 0.733 |
| VTAALYGRLYE [BTD_Y536] | 0.899 |
| SHSMKYFDTAV [HLA-C_Y31_R30K] | 1.01 |
| EKKKYYDAKIE [CASP5_Y104_T106A] | 1.07 |
| HFVDEYDPTME [KRAS_Y32_I36M] | 0.802 |
| KVGNEYVNKGQ [MYH7_Y410_T412N] | 2.24 |
| RREWYYEVIIA [BACE1_Y260_V265A] | 0.673 |
| IGEVVYQRAAM [GRIN2A_Y502_V506A] | 0.84 |
| DLDLTYIYPNI [PTEN_Y27] | 1.29 |
| TPGPNYRPGYN [USH2A_Y463] | 0.671 |
| NQSVRYDSSLK [ABCC8_Y1353_L1349Q] | 0.675 |

Target: c-Src SH2
Assay: as above

| Sequence | SH2 binding enrichment |
| --- | --- |
| LTFDEYRNISQ [ANXA3_Y216] | 0.49 |
| PEVSGYCHYAD [TG_Y234_C237Y] | 0.935 |
| ELAVNYQEQAS [SLC9A9_Y591_I589V] | 0.563 |
| GDPTEYFITAI [IGSF22_Y501_S503I_YF] | 0.499 |
| QNTGDDFDLFG [PTPN11_Y62_Y62D_YF] | 0.402 |
| RLAKTYETTLE [ALB_Y377] | 0.473 |
| DDFDLYGGEKF [PTPN11_Y66_Y62D_YF] | 0.426 |
| SAGSSYSISVI [PAX5_Y179_G183V] | 0.62 |
| FLNSIYKCRDE [ROS1_Y2227_S2229C] | 0.518 |
| ARLEFYENEKK [IRS1_Y47_YF] | 2.68 |
| FRVAGYKTQGG [TIA1_Y383_E384K_YF] | 0.489 |
| FCVVRYCWLRR [MPZ_Y181_Y177C] | 0.539 |
| TDHLQYFDSNK [ARAP1_Y359_R358Q] | 0.536 |
| AASHRYDLGGL [QPRT_Y162] | 0.521 |
| TISPYYCQSLF [CRYAA_Y48_R49C] | 2.21 |
| CTTIHYDFMCN [TP53_Y234_N235D_YF] | 6.1 |
| LPEENYQVLRF [ARHGAP1_Y365] | 0.548 |

| Sequence | SH2 binding enrichment |
| --- | --- |
| VEEDTYTMPST [PTK2_Y407_D402V] | 0.424 |
| ACEVLYNIVFM [NCF2_Y125_A128V] | 0.403 |
| TNFPLYLRSLE [MTM1_Y71_R69P_YF] | 0.675 |
| VKPHRYRPGTV [H3-5_Y41] | 0.486 |
| YGGLRYGYGGL [KRTAP20-2_Y13_V17G] | 0.725 |
| DGYIDYAEFAK [MCFD2_Y138] | 0.661 |
| VTAALYGRLYE [BTD_Y536] | 1.12 |
| SHSMKYFDTAV [HLA-C_Y31_R30K] | 0.417 |
| EKKKYYDAKIE [CASP5_Y104_T106A] | 0.522 |
| HFVDEYDPTME [KRAS_Y32_I36M] | 0.717 |
| KVGNEYVNKGQ [MYH7_Y410_T412N] | 0.444 |
| RREWYYEVIIA [BACE1_Y260_V265A] | 0.415 |
| IGEVVYQRAAM [GRIN2A_Y502_V506A] | 0.53 |
| DLDLTYIYPNI [PTEN_Y27] | 3.33 |
| TPGPNYRPGYN [USH2A_Y463] | 0.442 |
| NQSVRYDSSLK [ABCC8_Y1353_L1349Q] | 0.404 |
